Values joined by “and” are separate entries in the source; they are usually repeats but may differ in a detail not shown here. Equal entries are not always repeated. Where no end group is shown, it is not given here.
Legend:
[1] = target: T1, gp120451 (gp120 of HIV-1 isolate 451) (HIV-1 isolate 451); assay: quantitative ELISA (FIG. 7)
T1 construct: also called soluble monomeric gp120451

[2] = target: T2, CD4 protein (UniProt P01730 26-394); assay: ELISA: m1 phage captured by anti-M13 antibody, incubated with CD4, probed with anti-CD4 mAb
T2 construct: also called soluble CD4

B1: m1 peptide (phage-displayed) (peptide)
peptide: CDRRDLPQWAKREC
modifications: not fully specified (C-terminus); cysteine pairing not given here; also: fused to N terminus of phage pVIII (mosaic fth1 phage)
notes: Tested as a fusion to protein 8 on filamentous phage (fth1 vector, mosaic phage); 12mer flanked by constant cysteines; not shown: fd phage protein 8 (pVIII) display carrier at the peptide's C end
Kd [1]: 69 nM and 69.2 nM | binding result [2]: no binding

Source: US20100247558A1 (RAMOT AT TEL AVIV UNIVERSITY, published 2010)
